Data reported in patent publication US11858972B2, “Micropeptides and uses thereof” (FUNDACIÓ PRIVADA INSTITUT D'INVESTIGACIÓ ONCOLÒGICA DE VALL …, priority 2018, dated 2024).

How the values were obtained:
[1] = tested on: BxPC-3 pancreatic cancer cell line; assay: Cell cycle analysis by flow cytometry; format: cell-based; settings: BxPC-3, expression induced by doxycycline for 4 days
Text: (§1) FIG. 5. Micropeptide of sequence SEQ ID NO: 1 overexpression induces cell cycle arrest and cellular senescence. BxPC-3 cells were transduced with an inducible lentivirus coding HA-SEQ ID NO: 1. Micropeptide of sequence SEQ ID NO: 1 expression was induced by doxycycline treatment for 4 days. (A) Phase contrast images of SEQ ID NO:1-expressing cells and control cells. (B) Cell viability analysis by CellTiter-Glo assay. (C) Cell cycle analysis by flow cytometry. Left, histogram plots. Right, quantification of the number of cells in every cell cycle phase (D) Analysis of p27 and p21 expression by qPCR. (E) Western Blot of the indicated cells using anti-HA and anti-p21 antibodies. (F) Quantification of the number of SA-β-Gal positive cells in doxycycline-treated and untreated cells. (G) Representative pictures of the cell quantified in (F). Graphs show the mean±SEM, using at least 3 technical replicates. **P<0.01 ***P<0,001 **** P<0.0001, two-tailed t-test.
(§2) Micropeptide of SEQ ID NO: 1 expression was induced in BxPC3 cells by treatment with doxycycline (2 μg/ml) for 4 days. Cells were fixed using 100% ethanol at 4° C., stained with Propidium Iodide, and cell cycle was analysed by flow cytometry (LSR-Fortessa cytometer). Cell viability in micropeptide of SEQ ID NO: 1-expressing cells was evaluated using CellTiter-Glo 2.0 (Promega) following manufacturer's instructions.

[2] = tested on: SkBR-3, HPAF II, MIA PaCa-2 and BxPC-3 cells; assay: Cell death upon puromycin selection stress (phase contrast images); format: cell-based; settings: Puromycin selection of infected cells, pMSCV non-inducible vector; several pancreatic and breast cancer cell lines
Experimental: FIG. 6. Micropeptide of sequence SEQ ID NO: 1 expression induces cell death upon cellularstress. SkBR-3, HPAF II, MIA PaCa-2 and BxPC-3 cells were infected with empty or SEQ ID NO: 1-HA retroviruses, and selected by puromycin. Micropeptide of sequence SEQ ID NO: 1 expression was analyzed by qPCR (A) and by Western blot (B). (C) Phase contrast images of the indicated cells 3 days after selection with puromycin. […] (E) BXPC-3 cells were infected with an inducible lentivirus encoding SEQ ID NO: 1-HA, and selected with Neomycin. Micropeptide of sequence SEQ ID NO: 1 expression was induced by doxycycline, and cells were treated with Doxorubicin or Actinomycin D. (E) Cell viability of the indicated cells measured by crystal violet staining.

[3] = tested on: BxPC-3 pancreatic cancer cell line; assay: Cell viability by CellTiter-Glo after doxycycline-induced expression; format: cell-based; settings: BxPC-3, expression induced by doxycycline for 4 days
Text: as §1, §2

BxPC-3 infected cells = assay: Annexin V/PI assay; format: cell-based; settings: BxPC-3, SEQ ID NO: 1-Puromycin conditions
Experimental: FIG. 6. Micropeptide of sequence SEQ ID NO: 1 expression induces cell death upon cellularstress. SkBR-3, HPAF II, MIA PaCa-2 and BxPC-3 cells were infected with empty or SEQ ID NO: 1-HA retroviruses, and selected by puromycin. Micropeptide of sequence SEQ ID NO: 1 expression was analyzed by qPCR (A) and by Western blot (B). (C) Phase contrast images of the indicated cells 3 days after selection with puromycin. (D) Annexin-V/PI staining of BxPC-3 infected cells with and without puromycin treatment, analyzed by Flow Cytrometry. (E) BXPC-3 cells were infected with an inducible lentivirus encoding SEQ ID NO: 1-HA, and selected with Neomycin. Micropeptide of sequence SEQ ID NO: 1 expression was induced by doxycycline, and cells were treated with Doxorubicin or Actinomycin D. (E) Cell viability of the indicated cells measured by crystal violet staining.
After lentiviral infection and puromycin selection for 72 h, infected cells were washed twice with cold PBS and resuspended in Binding Buffer at a cell density of 1×10^6 cells/mL. Following manufacturer's instructions (BD Pharmingen™) 100 μL of cells were treated with 5 μL of Annexin V-FITC. After incubation for 15 min in the dark at room temperature, 400 ul of Binding Buffer was added and each sample was supplemented with 10 μL of Propidium Iodide. Flow cytometry analysis was performed on a LSR Fortessa cytometer.

[4] = tested on: squamous cell carcinoma cell line H10; assay: Cell proliferation assay (growth curve, 14 days); format: cell-based; settings: H10, monitored for 14 days, vs control vector
Text: FIG. 8. SEQ ID NO: 1 overexpression reduces cell proliferation. A549 and H10 cells were transduced with an inducible lentivirus coding HA-SEQ ID NO: 1. SEQ ID NO: 1 expression was induced by doxycycline treatment for 14 days. (A) Growth curve of transduced cells over 14 days of SEQ ID NO:1 expression. (B) Cell cycle analysis by flow cytometry. Left, histogram plots. Right, quantification of the number of cells in every cell cycle phase. Graphs show the mean±SD, using at least 3 technical replicates. **** P<0.0001, two-tailed t-test.
A549 and H10 cell lines were dissociated by trypsin digestion and seeded into 24-well cell culture plates at density 5×10^3 cells/well. Every two days, cells were dissociated from wells and counted using a Neubauer chamber. Cell growth curves were monitored for 14 days.

BxPC-3 cells = assay: SA-β-gal staining assay; format: cell-based; settings: BxPC-3, doxycycline-treated vs untreated
Text: as §1
For SA-β-gal staining, cells were fixed and stained using a commercial senescence β-galactosidase staining kit (Cell Signalling) following manufacture's protocol.

A549 cancer cells = assay: Invasion assay (Boyden chamber, Matrigel); format: cell-based, human; settings: A549, after 4 days of doxycycline induction, 24 h invasion
Experimental: FIG. 9. SEQ ID NO: 1 overexpression impairs invasiveness and reduces mesenchymal traits in A549 and H10 cell lines. Invasion of indicated cells was analyzed in matrigel-coated inserts. (A) The undersides of membrane inserts containing invaded cells were fixed and stained with crystal violet and photographed 24 h after plating. (B) Number of invasive cells was calculated using ImageJ software. Bars plots show relative number of cells invading the chamber. (C) Analysis of several mesenchymal genes by qPCR. mRNA expression is shown relative to the control. * P<0.05, **P<0.01 two-tailed t-test.
BxPC-3, MDA-MB-231, A549 and H10 cell lines were trypsinized, counted, and 20.000 cells/well were seeded in triplicate in a Corning® cell culture insert (Boyden chamber) in which the porous membrane is coated with a layer of Matrigel® to mimic an extra cellular matrix (ECM). Cells were allowed to invade through the coated membrane for 24 hours in the cell incubator at 37° C. After the incubation time, culture inserts were fixed in methanol 5 minutes at RT and stained using Crystal Violet 20 minutes at RT. The excess of Crystal Violet staining was removed washing with PBS and pictures of the chambers were taken using an Olympus CeIIR microscope. Invading cells were counted using ImageJ and fold change was calculated normalizing to the control.

B1: SEQ ID NO: 1: highly conserved 87 aa micropeptide coded by the lncRNA TINCR; predicted ubiquitin-like protein (protein, listed as Homo sapiens)
chain: MEGLRRGLSRWKRYHIKVHLADEALLLPLTVRPRDTLSDLRAQLVGQGVSSWKRAFYYNARRLDDHQTVRDARLQDGSVLLLVSDPR
cell cycle [1]: induces cell cycle arrest in G1 phase
cell death when coupled with cellular stress [2]: extensive cell death
cell proliferation [3]: significantly reduces cell proliferation
percentage of early apoptotic cells (BxPC-3 infected cells): 22.4%
percentage of late apoptotic cells (BxPC-3 infected cells): 58.6%
growth rate [4]: consistently lower growth rate
number of senescent cells (SA-β-Gal-positive cells) (BxPC-3 cells): increase
invasion (A549 cancer cells): significant decrease in invasion
